Positions count from the first letter of the chain named.
B1: anti-TAT194 monoclonal antibody R4203 (antibody, V domains shown)
VH: EVQLQQSGPELVKPGASMKISCKASGYSFTGFTMNWVKQSHGKNLEWIGLINPYNGVTNYNQKFRGKATLTVDESSSTAYMDLLSLTSEDSAVYYCARHYSFAMDYWGQGTSVTVSS
VL: DIVLTQSPASLAVSLGQRATISCRASESVDGYGSSFMHWYQQKPGQPPKLLIYRTSNLESGIPARFSGSGSTTDFTLTINPVEADDVATYYCQQNSEDRTFGGGTKLEIKR
notes: Monoclonal antibody from a mouse hybridoma; kappa VL
B2: anti-TAT194 monoclonal antibody R4208 (antibody, V domains shown)
VH: QVHLQQSGSELRSPGSSVKLSCKDFDSEVFPIAYMSWVRQKPGHGFEWIGDILPNIGRTIYGEKFEDKATLDADTVSNTAYLELNSLTSEDSAMYYCGRSITRAWFAYWGQGTLVTVSV
VL: DIQMTQSPSSLSASLGERVSLTCRASQEISGYLSWFQQKPDGTIKRLIYAASTLDSGVPKRFSGSRSGSDYSLTISSLASEDFADYFCLQYAGNPFTFGSGTKLEIKR
notes: as for B1
B3: anti-TAT194 monoclonal antibody R4209 (antibody, V domains shown)
VH: EVNLEESGGGLVQPGGSMKLSCVASGFTFSNYWMNWVRQSPEKGLEWVADISLKSNNYGTHYAESVNGRFTISRDDSTSSVYLQMNNLRAEDTGIYYCAVYYYGVKFYYFVLGYWGQGTSVTVSS
VL: DIVMTQSHKFMSTSVGDRVSITCKASQDVSTAVAWYQQKPGQSPKLLIYWGSTRHTGVPDRFTGVGSGTDYSLTISSVQAEDLALYYCQQHYNIPWTFGGGTKLEIKR
notes: as for B1
B4: anti-TAT194 monoclonal antibody R4212 (antibody, V domains shown)
VH: DVQLQESGPGLVAPSQSLSITCTVSGFSLSRYSVHWVRQPPGKGLEWLGMIWLGGSTDYNSALKSRLSISKDISKSQVFLKMNSLQTDDTAMYYCARNLDSRGFAHWGQGTLVTVSA
VL: DVLMTQTPLSLPVSLGDQASISCRSSQSIVHSNGNTYLEWYLQKPGQSPKLLIYKVSNRFSGVPDRFSGSGSGTDFTLKISRVEAEDLGVYYCFQGSHVPPTFGGGTKLEIKR
notes: as for B1
B5: anti-TAT194 monoclonal antibody R4204 (antibody, V domains shown)
VH: QVQLQQSGAELAKPGTSVKMSCKASGYTFTTYWMHWIKQRPGQGLEWIGYINPSTGYSEYNQKFKDKATLTADRSSSTAYMQLSSLTSEDSTVYYCARWRFYGSTYGMDYWGQGTSVTVSS
VL: QIVLTQSPALMSAFPGEKVTLTCSASSSVTYMYWYQQKPRSSPKPWIYLTSKLASGVPSRFSGSGSGTSFSLTITSMEAEDAATYYCQQWTGNPLTFGAGTKLELKR
notes: as for B1
B6: anti-TAT194 monoclonal antibody R4205 (antibody, V domains shown)
VH: QVQLKESGPGLVKPSQSLSLTCTVTGYSITSDYVWNWIRQFPGNKLEWMGYIHYSGGTSYNPSLKSRISITRDTSKNQFFLHLNSLTTEDTATYYCARGNYDWAFAYWGQGTLVTVSA
VL: DVQITQSPSYLAASPGETITINCRASKSISKYLAWYQDKPGKTNKLLISSGSTLQSGIPSRFSGSGSGADFTLTISSLEPEDFAMYYCQQHNEYPWTFGGGTKLEIKR
notes: Monoclonal antibody from a mouse hybridoma; kappa VL; also called anti-RET murine monoclonal antibody clone 4205
B7: anti-TAT194 monoclonal antibody R4206 (antibody, V domains shown)
VH: DVQLQESGPGLVKPSQSLSLTCTVTGFSITSDYAWNWIRQFPGNKLEWMAYITYSGDTGYNPSLKSRISVTRDTSKNQFFLQLSSVTTEDTATYYCARGNYDWVFAYWGQGTLVTVSA
VL: B6 VL with D38E, S49Y, A69T, H91Y, N92I
notes: as for B1
B8: anti-TAT194 monoclonal antibody R4207 (antibody, V domains shown)
VH: B7 VH
VL: B6 VL with D38E, S49Y, A69T, H91Y, N92I
notes: as for B1

Target: T1, TAT194 polypeptide as used in the BIAcore analysis (human, UniProt P07949 29-635, limits assumed)
T1 construct: The construct used for the BIAcore analysis (extracellular domain, tag, fusion, isoform) is not described; also called RET
Assay: standard BIAcore analysis

Binder	Kd
B1	0.1 nM
B2	1.25 nM
B3	2.55 nM
B4	105 nM
B5	169 nM
B6	0.18 nM
B7	0.34 nM
B8	0.54 nM

— US20150098946A1 (Genentech, published 2015)
